Measurements reported in patent US12637513B2, “Method of treating cancer by administering an inhibitor of erythropoietin receptor activity comprising either erythropoietin receptor or erythropoietin protein” (ImmunEdge, Inc., priority 2022, dated 2026).

Columns and labels:
UT-7 cells = target: T1, UT-7 cells (Homo sapiens, UniProt P19235); experiment: Staining of UT-7 cells with purified antibodies; format: binding
T1 construct: endogenous in cells; host or cells: UT-7 human leukemia cells
T1 sequence (P19235 25-508): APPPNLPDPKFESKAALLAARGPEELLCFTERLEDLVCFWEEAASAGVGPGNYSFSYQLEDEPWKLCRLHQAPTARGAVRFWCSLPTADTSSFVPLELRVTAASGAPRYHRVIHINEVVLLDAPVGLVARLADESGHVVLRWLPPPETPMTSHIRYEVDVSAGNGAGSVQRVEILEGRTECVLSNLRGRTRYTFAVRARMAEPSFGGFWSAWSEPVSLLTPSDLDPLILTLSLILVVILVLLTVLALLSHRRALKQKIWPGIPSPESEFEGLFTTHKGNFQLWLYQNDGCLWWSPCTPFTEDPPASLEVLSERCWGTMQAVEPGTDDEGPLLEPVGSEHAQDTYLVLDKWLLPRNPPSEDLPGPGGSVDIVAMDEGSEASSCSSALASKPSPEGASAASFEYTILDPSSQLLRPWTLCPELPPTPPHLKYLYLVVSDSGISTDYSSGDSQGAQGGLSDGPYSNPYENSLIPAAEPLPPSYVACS
Protocol: The purified antibodies were used to stain the human leukemia UT-7 cells, 293T/EPOR, 293T/CD131, and 293T/EPOR/CD131 cells to confirm antigen binding. The UT-7 cells were maintained in Roswell Park Memorial Institute (RPMI) with 10% Fetal Bovine Serum (FBS) and 5 ng/ml of recombinant human GM-CSF (Peprotech®, Cat #300-03). The 293T cells expressing hEPOR, hCD131, or both were maintained in Dulbecco's Modified Eagle Medium (DMEM) with 10% FBS. 1×10^6 cells/ml were incubated with purified hybridoma clones M2 and M41 at a 3-fold dilution series starting from 20 μg/ml for 30 minutes at 4° C. After washing, the cells were incubated with PE labeled secondary antibody and subjected to flowcytometric analysis. […] The binding profiles of the 293T/EPOR/CD131 cells are similar except the peak MFIs around 1500, half of that of the 293T/EPOR cells (FIG. 29B).

[1] = target: T2, soluble hetero-EPOR (EPOR-CD131-Fc) (Homo sapiens, UniProt P19235+P32927); experiment: Bio-layer interferometry (Octet) binding of hybridoma antibodies to EPOR-CD131-Fc; conditions: hybridoma supernatants; 30 nM soluble receptor
T2 construct: Chimeric Fc fusion proteins of the extracellular domains of human EPOR and human CD131; purchased Sino Biological CT010-H02H
T2 sequence (P19235 25-250 limits assumed): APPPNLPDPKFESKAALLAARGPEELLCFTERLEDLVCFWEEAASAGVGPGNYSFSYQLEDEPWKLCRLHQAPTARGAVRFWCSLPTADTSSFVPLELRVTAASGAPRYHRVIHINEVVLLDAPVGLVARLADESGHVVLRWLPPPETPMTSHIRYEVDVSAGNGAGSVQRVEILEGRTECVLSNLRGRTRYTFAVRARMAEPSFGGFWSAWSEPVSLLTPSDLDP
T2 sequence (P32927 17-443 limits assumed): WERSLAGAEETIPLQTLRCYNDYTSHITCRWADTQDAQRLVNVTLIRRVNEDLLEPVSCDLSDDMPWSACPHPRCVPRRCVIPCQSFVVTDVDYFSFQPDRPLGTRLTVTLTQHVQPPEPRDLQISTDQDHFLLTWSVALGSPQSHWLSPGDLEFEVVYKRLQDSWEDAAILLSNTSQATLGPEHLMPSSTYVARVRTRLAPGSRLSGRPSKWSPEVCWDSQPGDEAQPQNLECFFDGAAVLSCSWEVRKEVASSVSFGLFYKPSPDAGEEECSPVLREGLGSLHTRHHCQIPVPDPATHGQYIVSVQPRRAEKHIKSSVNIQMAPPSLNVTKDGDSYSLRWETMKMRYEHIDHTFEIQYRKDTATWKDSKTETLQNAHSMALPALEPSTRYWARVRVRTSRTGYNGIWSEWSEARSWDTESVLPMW
From the text: The B cells from ATX-GK mice were fused with mouse myeloma cells to generate hybridoma. The hybridoma cells were screened twice. In the first screening, 293 cells expressing human EPOR, human CD131, or both were used as the primary screen. 87 hybridoma antibodies have been isolated by positive staining on 293T cells expressing human EPOR (hEPOR), human CD131 (hCD131), or both, with the hybridoma supernatants (Table 11 and FIG. 17). Expression of EPOR and CD131 was confirmed by flow cytometry with Phycoerythrin (PE)-labeled anti-EPOR (R&D Systems, Cat #FAB307P) and Alexa Fluor® 647 (AF647)-labeled anti-CD131 (BD Biosciences, Cat #564191), respectively (FIG. 28B). All hybridoma clones were purified and sequenced. Binding kinetics with soluble hetero-EPOR (EPOR-CD131-Fc), soluble EPO receptor subunit of hetero-EPOR (EPOR-Fc), and soluble CD131 subunit of hetero-EPOR (CD131-Fc) were measured using bio-layer interferometry (Octet®) by capturing the hybridoma antibodies in the supernatants on biosensors coated with anti-mouse Fc first and dipping the biosensors into the solutions containing 30 nM of the soluble receptor Fc fusion proteins. The supernatants were also used to block the interaction between EPO and EPOR. The soluble EPOR-CD131-Fc was first captured on biosensors coated with anti-human Fc and then dipped into 10 nM of EPO with or without the hybridoma supernatants. […]

B1: EPORab - M2: hybridoma antibody clone, VH/VK in Table 10 (antibody, V domains shown)
VH: QVQLVESGGGLVKPGGSLRLSCAASGFTFSDSYMSWIRQAPGKGLEWVSYISNSGSYMYYADSVKGRFTISRDNAKNSLYLQMNNLRAEDTAVYYCARDKLGIGDYWGQGTLVTVSS
VL: DIQMTQSPSSLSASVGDRVTITCRASQGIRNDLGWFQQKPGKAPKRLIYAASRLQSGVPSRFSGSGSGTEFTLTISSLQPEDFATYCCLQHHTYPPTFGQGTKVEIK
B1 was tested, and the MFI (UT-7 cells) was ~18,000 and the “binding to EPOR-CD131-Fc” value [1] was “potent binding”.
